Test results: patent publication US20200223919A1 (CYTOMX THERAPEUTICS, published 2020)

B1: Ab1 anti-hCD166 mouse monoclonal antibody (antibody, mouse IgG1, kappa)
heavy: EVQLQQSGAELVKPGASVKLSCTASGFNIKDYYMHWVKQRTEQGLEWIGKIDPENGETKYAPKFQGKATITADTSSSTAYLQLSSLTSEDTAVYYCAREGFMDYWGQGASVTVSSAKTTPPSVYPLAPGSAAQTNSMVTLGCLVKGYFPEPVTVTWNSGSLSSGVHTFPAVLQSDLYTLSSSVTVPSSTWPSQTVTCNVAHPASSTKVDKKIVPRDCGCKPCICTVPEVSSVFIFPPKPKDVLTITLTPKVTCVVVDISKDDPEVQFSWFVDDVEVHTAQTQPREEQFNSTFRSVSELPIMHQDWLNGKEFKCRVNSAAFPAPIEKTISKTKGRPKAPQVYTIPPPKEQMAKDKVSLTCMITDFFPEDITVEWQWNGQPAENYKNTQPIMDTDGSYFVYSKLNVQKSNWEAGNTFTCSVLHEGLHNHHTEKSLSHSPGK
light: DVVMTQTPLSLPVSLGDQASISCRSSQSLVHSNGNTYLHWYLQKPGQSPKLLIYKVSNRFSGVPDRFSGSGSGTDFTLKISRVEAEDLGVYFCSQSTFVPLTFGAGTKLELKRADAAPTVSIFPPSSEQLTSGGASVVCFLNNFYPKDINVKWKIDGSERQNGVLNSWTDQDSKDSTYSMSSTLTLTKDEYERHNSYTCEATHKTSTSPIVKSFNRNEC
notes: also called recombinant Ab1
B2: Ab2 anti-hCD166 mouse monoclonal antibody (antibody, mouse IgG1, kappa)
heavy: EVQLQQSGAELVKPGASVKLSCTASGFNIKDYYMHWVRQRTEQGLEWIGKIDPEDGETKYAPKFQGKATITADTSSNTAYLQLSSLTSEDTAVYYCAREGFMDYWGQGTSVTVSSAKTTPPSVYPLAPGSAAQTNSMVTLGCLVKGYFPEPVTVTWNSGSLSSGVHTFPAVLQSDLYTLSSSVTVPSSTWPSQTVTCNVAHPASSTKVDKKIVPRDCGCKPCICTVPEVSSVFIFPPKPKDVLTITLTPKVTCVVVDISKDDPEVQFSWFVDDVEVHTAQTQPREEQFNSTFRSVSELPIMHQDWLNGKEFKCRVNSAAFPAPIEKTISKTKGRPKAPQVYTIPPPKEQMAKDKVSLTCMITDFFPEDITVEWQWNGQPAENYKNTQPIMDTDGSYFVYSKLNVQKSNWEAGNTFTCSVLHEGLHNHHTEKSLSHSPGK
light: DNVMTQTPLSLSVSLGDQASISCRSSQSLVHSNGNTYLHWYLQKPGQSPKLLIYKVSNRFSGVPDRFSGSGSGTDFTLKISRVEAEDLGVYFCSQSTHVPLTFGAGTKLELKRADAAPTVSIFPPSSEQLTSGGASVVCFLNNFYPKDINVKWKIDGSERQNGVLNSWTDQDSKDSTYSMSSTLTLTKDEYERHNSYTCEATHKTSTSPIVKSFNRNEC
notes: Tested as hybridoma supernatant and as antibody purified from hybridoma supernatant

Columns and labels:
human CD166 = molecular target: T1, human CD166 (human, UniProt Q13740 28-583); experiment: IHC on FFPE HCC1806 cells, supernatant at 10 µg/mL IgG
T1 construct: whole, on cells; Endogenous protein detected by IHC on fixed, paraffin-embedded cells and tissues, and by Western blot of cell lysates; also called hCD166
T1 sequence (looked up): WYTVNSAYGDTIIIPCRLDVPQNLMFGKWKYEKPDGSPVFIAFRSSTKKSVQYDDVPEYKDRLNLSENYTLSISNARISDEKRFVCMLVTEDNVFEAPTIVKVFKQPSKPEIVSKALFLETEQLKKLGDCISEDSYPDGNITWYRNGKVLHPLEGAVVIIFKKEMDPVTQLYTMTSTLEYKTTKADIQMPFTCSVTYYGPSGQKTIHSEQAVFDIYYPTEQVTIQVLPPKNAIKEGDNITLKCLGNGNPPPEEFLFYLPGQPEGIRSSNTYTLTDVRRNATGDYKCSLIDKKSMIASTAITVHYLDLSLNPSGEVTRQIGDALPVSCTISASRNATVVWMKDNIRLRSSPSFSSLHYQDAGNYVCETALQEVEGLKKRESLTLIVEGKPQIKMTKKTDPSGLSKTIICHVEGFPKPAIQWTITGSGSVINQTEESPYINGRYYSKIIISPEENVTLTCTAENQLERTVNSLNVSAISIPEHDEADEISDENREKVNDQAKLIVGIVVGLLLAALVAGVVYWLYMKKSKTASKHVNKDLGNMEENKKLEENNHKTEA
Description: As shown in the exemplary IHC images of FIGS. 1-4, formalin-fixed paraffin-embedded (FFPE) human tumor cell lines (triple-negative breast cancer-derived cell line HCC1806 and breast ductal carcinoma-derived cell line BT-20) were prepared and blocked using standard protocols, and then incubated with the indicated hybridoma supernatents (Ab3, Ab6, Ab2, Ab1, Ab5, Ab7, Ab4, or Ab8 of the present disclosure) at 10 μg/mL IgG for 60 minutes are room temperature. As a control, FFPE samples were also incubated with ABCAM® EPR2759(2)/ab109215 anti-hCD166 rabbit monoclonal antibody at 5 μg/mL. Detection of bound primary antibody was performed by subsequent incubation with biotinylated-conjugated anti-mouse IgG antibody (for the hybridoma supernatents) or biotinylated-conjugated anti-rabbit IgG antibody (for the ABCAM® antibody), followed by addition of avidin-horseradish peroxidase (HRP) (Vectastain Elite ABC HRP Kit, Vector Laboratories) to form the avidin-biotin-HRP complex, followed by addition of a 3,3′-diaminobenzidine substrate (DAB Plus, Dako). Tissues were counterstained with Hematoxylin (Fisher Scientific).

[1] = molecular target: T2, Peptide B, amino acid residues 565 to 583 of human CD166 (human); experiment: ELISA, 200 ng/well peptide with 0.9 mg/mL BSA; expanded hybridoma clone supernatant
T2 construct: Coated at 100 or 200 ng/well with 0.9 mg/mL BSA
T2 peptide: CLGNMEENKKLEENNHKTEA
Source text: (§1) B cells from each of Mouse #2 and Mouse #3 were fused in a combined manner to generate hybridomas in accordance with methods known in the art. Hybridomas were cloned and ˜1100 clone supernatants were screened against the each of the human CD166-derived peptides using a Direct EIA format using a goat anti-IgG gamma chain-specific secondary antibody coupled to horseradish peroxidase (HRP) (Millipore, Cat. No. AP503P. Following the initial screen, 136 clones were selected for a further confirmatory screen, of which forty (40) were selected for expansion. The expanded clones were assayed for mouse IgG levels using anti-mouse sensors in an Octet RED96 system (Pall ForteBio) and ELISA (200 ng/well of peptides A or B with 0.9 mg/mL BSA). Candidates included Ab1 (also referred to herein as “Example anti-CD166 ICD antibody 1”), Ab2 (also referred to herein as “Example anti-CD166 ICD antibody 2”), Ab3, Ab4, Ab5, Ab6, Ab7, and Ab8. Five candidates (Ab1, Ab2, Ab3, Ab4, and Ab5) shown below in Table 4 were selected.

[2] = molecular target: T3, Peptide A, amino acid residues 550 to 569 of human CD166 (human); experiment: as above
T3 construct: Coated at 100 or 200 ng/well with 0.9 mg/mL BSA
T3 peptide: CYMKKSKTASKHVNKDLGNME
Source text: as §1

Binder | binding result (human CD166) | A620 [1] [A620] | A620 [2] [A620]
B1 | binds | 3.23 | 0.162
B2 | binds | 3.02 | 0.067
